According to patent US20070128190A1 (GLENMARK PHARMACEUTICALS S A, published 2007):

Legend:
[1] = molecular target: human α1β1 integrin (immobilized) (human, UniProt P56199 29-1179; P05556 21-798, limits assumed); test: ELISA on immobilized human α1β1
Procedure: Human α1β1 integrin (Chemicon International) was diluted in Coating Buffer (25 mM Tris, pH 7.5, 150 mM NaCl, 1 mM MgCl₂) to a final concentration of 0.5 μg/ml. 96-well immunoplates were coated with α1β1 at 50 ng/well and incubated overnight at 4° C. The plates were washed three times with Wash Buffer (50 mM Tris, pH 7.5, 150 mM NaCl, 2 mM MgCl₂, 0.5% Tween-20) and blocked with 5% w/v/skim milk in Wash Buffer for one hour at room temperature. […] Fifty microliters/well of the diluted antibody solutions were added to the α1β1-coated plates, incubated for one hour at room temperature, and then washed three times. […] After a one-hour incubation at room temperature, the plates were washed three times, incubated in substrate solution (1 mg/ml 4-nitrophenyl phosphate, 0.1 M diethanolamine, 5 mM MgCl₂, pH 9.8) for 20 minutes, and terminated with NaOH. The absorbance (405 nm) was read using a Spectramax Plus plate reader using Softmax Pro software. […] The control anti-α1β1 antibody (FB-12) bound to α1β1 with an EC₅₀ of 0.79±0.15 nM.

[2] = molecular target: T1, GST-cynomolgus α2 I domain fusion protein of Example 18 (sequence identical to the human I domain) (cynomolgus monkey, UniProt P17301 153-368 (human entry)); test: SPR (Biacore 2000), antibody captured, GST-α2 I domain in solution
T1 construct: also called GST-cynomolgous-α2 I domain fusion protein; not shown: glutathione S-transferase tag, vector not restated
T1 sequence: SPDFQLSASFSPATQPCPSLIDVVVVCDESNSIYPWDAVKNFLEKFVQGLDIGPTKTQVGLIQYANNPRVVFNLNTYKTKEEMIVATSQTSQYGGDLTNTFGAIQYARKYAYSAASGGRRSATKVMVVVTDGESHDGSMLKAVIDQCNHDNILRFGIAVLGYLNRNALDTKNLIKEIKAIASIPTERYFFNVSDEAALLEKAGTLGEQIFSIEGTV

[3] = molecular target: rat α2β1 integrin on rat blood cells (rat, UniProt A0A0G2K470 27-1178; P49134 21-798); test: cell-based or functional assay
[4] = molecular target: human α2 integrin with endogenous hamster β1 on CHO cells (human; hamster); test: cell-based or functional assay
[5] = molecular target: human α2β1 integrin on human cells (platelets, leukocytes, HT1080) (human, UniProt P17301 30-1181; P05556 21-798); test: cell-based or functional assay
GST = molecular target: T2, GST (UniProt P08515 1-218 = GST); test: ELISA, GST on immobilized TMC-2206
T2 construct: also called GST fusion protein (negative control)

[6] = molecular target: T3, GST-human α2 I domain fusion protein (human, UniProt P17301 153-368); test: Eu-TMC-2206 on immobilized GST-α2 I domain at 37 °C, Scatchard
T3 construct: the reverse primer ends at ...SIEGTV; also called GST-α2 I domain; hα2I; not shown: glutathione S-transferase tag encoded by vector pGEX-2TK
T3 sequence: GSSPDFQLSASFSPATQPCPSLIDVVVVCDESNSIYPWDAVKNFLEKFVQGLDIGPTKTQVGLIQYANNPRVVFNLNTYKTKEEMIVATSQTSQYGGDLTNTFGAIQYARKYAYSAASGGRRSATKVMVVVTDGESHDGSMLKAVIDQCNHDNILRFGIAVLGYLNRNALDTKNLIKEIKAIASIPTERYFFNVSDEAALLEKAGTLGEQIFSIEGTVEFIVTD

[7] = molecular target: T4, human platelet α2β1 integrin (immobilized on microtiter plates) (human, UniProt P17301 30-1181; P05556 21-798); test: competition with Eu-TMC-2206 on platelet α2β1-coated plates
T4 construct: plates custom-coated with human platelet α2β1 by GTI Inc; also called immobilized α2β1 integrin; α2β1-coated plates

[8] = molecular target: T4, human platelet α2β1 integrin …; test: equilibrium binding of Eu-TMC-2206 to human platelet α2β1-coated plate, Scatchard
Procedure: Wells in a 96 well microtiter plate were coated with platelet α2β1-integrin (custom-coated with human platelet α2β1 by GTI Inc., Wis.) and then blocked with nonfat milk. […] After concentration in prewashed MicroSep concentrators (30-kDa cutoff; Pall Life Sciences at 9500 rpm (7000×g) in a JA-20 rotor (Beckman Instruments, Inc.) for 20 minutes at 4° C.), antibodies were adjusted to 4.0 mg/mL with PBS containing a final concentration of 100 mM NaHCO₃, pH 9.3. The mAb/bicarbonate mixture (0.250 mL) was gently mixed into a vial containing 0.2 mg N¹-(p-isothiocyanatobenzyl)-diethylenetriamine-N¹,N²,N³N³-tetraacetic acid chelated with Eu³⁺ (Eu-N1-ITC; Perkin Elmer Life Sciences) and reacted overnight at 4° C. without stirring. Each labeled antibody mixture was applied to a separate PD-10 column (GE Biosciences, Piscataway, N.J.) pre-equilibrated with Running Buffer (50 mM Tris, pH 7.4 and 138 mM NaCl). Fractions (0.5 mL) were collected and assayed for total protein (Bradford reagent; Bio-Rad Laboratories, Hercules, Calif.) using a SpectraMax 384 absorbance plate reader and for europium after 1:10.000 dilution in DELFIA Enhancement Solution (Perkin-Elmer) by time-resolved fluorescence (TRF) using a Victor2 multi-label plate reader (Perkin Elmer). […]

Chain of human α2β1 integrin on human cells (platelets, leukocytes, HT1080) (P17301 30-1181 E534K limits assumed, chain 1 of 2): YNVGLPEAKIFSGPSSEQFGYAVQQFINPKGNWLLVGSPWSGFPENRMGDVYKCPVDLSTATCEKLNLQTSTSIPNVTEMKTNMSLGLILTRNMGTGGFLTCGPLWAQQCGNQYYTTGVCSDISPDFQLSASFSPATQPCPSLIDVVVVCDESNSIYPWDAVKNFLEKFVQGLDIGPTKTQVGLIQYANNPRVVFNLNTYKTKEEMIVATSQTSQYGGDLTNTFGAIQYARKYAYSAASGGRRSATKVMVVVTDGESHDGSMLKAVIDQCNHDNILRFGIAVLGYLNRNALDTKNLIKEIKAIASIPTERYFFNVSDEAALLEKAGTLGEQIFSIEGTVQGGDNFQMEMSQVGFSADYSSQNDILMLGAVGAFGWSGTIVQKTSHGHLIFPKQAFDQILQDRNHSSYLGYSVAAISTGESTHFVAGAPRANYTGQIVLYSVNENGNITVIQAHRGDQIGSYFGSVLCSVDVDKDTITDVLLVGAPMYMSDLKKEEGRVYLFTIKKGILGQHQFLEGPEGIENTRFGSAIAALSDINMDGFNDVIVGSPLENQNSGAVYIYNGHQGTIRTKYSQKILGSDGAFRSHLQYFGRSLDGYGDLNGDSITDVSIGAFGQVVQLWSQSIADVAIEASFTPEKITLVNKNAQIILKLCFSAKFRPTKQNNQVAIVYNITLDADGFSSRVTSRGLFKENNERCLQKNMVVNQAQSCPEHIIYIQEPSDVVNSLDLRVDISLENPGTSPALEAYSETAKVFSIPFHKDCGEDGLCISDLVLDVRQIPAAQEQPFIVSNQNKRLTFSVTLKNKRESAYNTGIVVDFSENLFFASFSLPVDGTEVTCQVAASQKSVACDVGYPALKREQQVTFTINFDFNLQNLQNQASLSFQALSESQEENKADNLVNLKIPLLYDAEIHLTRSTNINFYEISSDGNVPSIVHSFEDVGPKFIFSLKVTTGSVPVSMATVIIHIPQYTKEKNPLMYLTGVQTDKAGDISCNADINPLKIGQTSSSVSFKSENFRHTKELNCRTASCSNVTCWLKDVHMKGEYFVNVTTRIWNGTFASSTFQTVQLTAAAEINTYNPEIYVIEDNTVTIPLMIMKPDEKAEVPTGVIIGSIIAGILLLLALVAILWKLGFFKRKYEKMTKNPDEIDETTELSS
Chain of human α2β1 integrin on human cells (platelets, leukocytes, HT1080) (P05556 21-798 limits assumed, chain 2 of 2): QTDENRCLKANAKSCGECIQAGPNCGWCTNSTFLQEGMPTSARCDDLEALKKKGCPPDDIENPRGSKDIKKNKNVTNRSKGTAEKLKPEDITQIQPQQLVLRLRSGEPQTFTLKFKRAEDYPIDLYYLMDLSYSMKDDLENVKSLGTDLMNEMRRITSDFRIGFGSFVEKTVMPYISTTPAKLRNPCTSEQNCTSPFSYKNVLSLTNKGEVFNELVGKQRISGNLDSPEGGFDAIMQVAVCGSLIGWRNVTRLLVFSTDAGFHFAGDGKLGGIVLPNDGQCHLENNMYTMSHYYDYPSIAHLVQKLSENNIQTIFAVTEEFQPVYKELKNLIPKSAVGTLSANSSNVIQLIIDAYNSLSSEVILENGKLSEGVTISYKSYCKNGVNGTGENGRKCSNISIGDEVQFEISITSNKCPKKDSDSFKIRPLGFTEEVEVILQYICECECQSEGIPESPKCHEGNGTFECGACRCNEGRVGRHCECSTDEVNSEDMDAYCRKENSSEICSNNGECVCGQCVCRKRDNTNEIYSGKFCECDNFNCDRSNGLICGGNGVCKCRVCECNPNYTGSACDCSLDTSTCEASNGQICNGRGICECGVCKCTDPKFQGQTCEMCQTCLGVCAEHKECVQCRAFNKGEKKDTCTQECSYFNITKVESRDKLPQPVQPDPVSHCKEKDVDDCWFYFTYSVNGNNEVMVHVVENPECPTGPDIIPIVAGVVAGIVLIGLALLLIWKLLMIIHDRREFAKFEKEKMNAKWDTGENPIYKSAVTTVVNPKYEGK
Chain of rat α2β1 integrin on rat blood cells (chain, as listed by the source, chain 1 of 2): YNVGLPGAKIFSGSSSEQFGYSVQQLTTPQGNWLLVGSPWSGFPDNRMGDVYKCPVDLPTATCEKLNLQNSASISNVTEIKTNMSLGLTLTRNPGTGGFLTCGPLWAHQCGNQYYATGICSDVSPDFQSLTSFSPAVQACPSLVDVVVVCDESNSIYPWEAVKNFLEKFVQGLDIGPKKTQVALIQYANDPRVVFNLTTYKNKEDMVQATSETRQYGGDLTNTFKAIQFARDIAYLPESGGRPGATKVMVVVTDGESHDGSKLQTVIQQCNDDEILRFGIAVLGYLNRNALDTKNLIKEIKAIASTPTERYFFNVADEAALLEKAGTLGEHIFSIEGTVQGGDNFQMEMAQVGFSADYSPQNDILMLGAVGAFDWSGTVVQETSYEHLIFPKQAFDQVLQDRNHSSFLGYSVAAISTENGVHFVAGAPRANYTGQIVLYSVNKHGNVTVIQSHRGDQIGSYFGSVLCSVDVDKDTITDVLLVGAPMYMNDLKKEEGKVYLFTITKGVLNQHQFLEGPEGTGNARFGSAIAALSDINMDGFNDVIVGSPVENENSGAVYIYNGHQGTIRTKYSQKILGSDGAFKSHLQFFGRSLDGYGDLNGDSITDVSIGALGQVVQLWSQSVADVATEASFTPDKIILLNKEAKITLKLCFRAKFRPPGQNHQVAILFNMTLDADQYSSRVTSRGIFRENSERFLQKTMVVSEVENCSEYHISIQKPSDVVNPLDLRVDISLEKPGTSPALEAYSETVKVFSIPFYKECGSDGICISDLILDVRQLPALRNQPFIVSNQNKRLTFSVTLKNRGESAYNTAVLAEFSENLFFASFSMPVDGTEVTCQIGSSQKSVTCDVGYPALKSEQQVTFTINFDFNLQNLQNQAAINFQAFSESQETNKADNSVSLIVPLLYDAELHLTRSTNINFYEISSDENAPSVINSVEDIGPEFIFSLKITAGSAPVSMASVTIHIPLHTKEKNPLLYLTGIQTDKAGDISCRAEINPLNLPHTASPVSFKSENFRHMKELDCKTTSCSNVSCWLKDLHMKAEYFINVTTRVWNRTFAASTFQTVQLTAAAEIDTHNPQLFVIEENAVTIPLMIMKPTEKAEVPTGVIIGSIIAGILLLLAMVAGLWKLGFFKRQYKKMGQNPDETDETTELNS
Chain of rat α2β1 integrin on rat blood cells (P49134 21-798, chain 2 of 2): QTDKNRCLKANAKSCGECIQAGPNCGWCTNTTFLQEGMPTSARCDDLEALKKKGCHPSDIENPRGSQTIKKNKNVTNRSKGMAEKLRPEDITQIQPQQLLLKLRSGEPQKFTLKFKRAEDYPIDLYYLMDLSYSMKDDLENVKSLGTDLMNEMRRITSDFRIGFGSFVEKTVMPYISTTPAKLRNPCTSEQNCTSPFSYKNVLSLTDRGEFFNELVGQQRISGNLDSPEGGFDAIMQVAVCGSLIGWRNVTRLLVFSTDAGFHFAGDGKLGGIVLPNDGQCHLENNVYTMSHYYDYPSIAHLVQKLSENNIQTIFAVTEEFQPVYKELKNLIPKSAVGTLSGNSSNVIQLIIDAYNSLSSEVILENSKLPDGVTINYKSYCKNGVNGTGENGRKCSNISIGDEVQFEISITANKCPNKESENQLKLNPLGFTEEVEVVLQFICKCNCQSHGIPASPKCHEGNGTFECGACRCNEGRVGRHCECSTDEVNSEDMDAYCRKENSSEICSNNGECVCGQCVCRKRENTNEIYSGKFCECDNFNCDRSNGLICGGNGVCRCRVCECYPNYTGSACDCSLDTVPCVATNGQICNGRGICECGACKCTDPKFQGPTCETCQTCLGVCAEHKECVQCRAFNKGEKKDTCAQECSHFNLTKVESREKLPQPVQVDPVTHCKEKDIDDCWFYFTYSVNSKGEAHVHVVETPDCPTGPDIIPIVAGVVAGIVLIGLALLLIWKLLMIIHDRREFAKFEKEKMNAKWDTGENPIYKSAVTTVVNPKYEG
T4 sequence (P17301 30-1181 E534K limits assumed, chain 1 of 2): as the sequence (P17301 30-1181 E534K limits assumed, chain 1 of 2) above
T4 sequence (P05556 21-798 limits assumed, chain 2 of 2): as the sequence (P05556 21-798 limits assumed, chain 2 of 2) above
Chain of human α2 integrin with endogenous hamster β1 on CHO cells (human; hamster) (P17301 30-1181 E534K): as the sequence (P17301 30-1181 E534K limits assumed, chain 1 of 2) above
T2 sequence (P08515 whole entry, the tested form may be a part): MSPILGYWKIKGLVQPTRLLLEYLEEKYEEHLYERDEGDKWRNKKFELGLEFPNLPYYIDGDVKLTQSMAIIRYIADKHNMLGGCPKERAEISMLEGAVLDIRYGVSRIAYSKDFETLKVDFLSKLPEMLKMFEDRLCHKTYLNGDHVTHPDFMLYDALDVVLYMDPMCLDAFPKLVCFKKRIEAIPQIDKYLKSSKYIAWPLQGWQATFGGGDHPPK

B1: Humanized TMC-2206 (hIgG4/κ VH12.0/VL10.0Q) (antibody)
heavy: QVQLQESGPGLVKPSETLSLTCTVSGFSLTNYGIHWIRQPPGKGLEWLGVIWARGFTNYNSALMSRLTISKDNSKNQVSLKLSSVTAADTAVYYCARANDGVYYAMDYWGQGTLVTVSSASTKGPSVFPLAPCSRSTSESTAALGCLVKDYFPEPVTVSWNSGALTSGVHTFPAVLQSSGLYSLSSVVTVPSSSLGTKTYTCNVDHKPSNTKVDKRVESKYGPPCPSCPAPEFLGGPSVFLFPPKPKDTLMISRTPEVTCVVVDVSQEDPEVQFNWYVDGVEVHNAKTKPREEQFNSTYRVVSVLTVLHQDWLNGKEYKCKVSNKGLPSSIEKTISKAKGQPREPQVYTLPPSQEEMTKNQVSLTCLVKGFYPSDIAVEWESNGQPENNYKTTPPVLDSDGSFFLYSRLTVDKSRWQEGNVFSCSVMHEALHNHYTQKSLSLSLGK
light: DFVMTQSPAFLSVTPGEKVTITCSAQSSVNYIHWYQQKPDQAPKKLIYDTSKLASGVPSRFSGSGSGTDYTFTISSLEAEDAATYYCQQWTTNPLTFGQGTKVEIKRTVAAPSVFIFPPSDEQLKSGTASVVCLLNNFYPREAKVQWKVDNALQSGNSQESVTEQDSKDSTYSLSSTLTLSKADYEKHKVYACEVTHQGLSSPVTKSFNRGEC
notes: labelled with Eu or Alexa-488 in some assays
[1]
  binding result: no binding
[2]
  Kd: 5 nM
  koff: 0.003 s⁻¹
  kon: 500000 M⁻¹ s⁻¹

B2: TMC-2206 (antibody, mouse IgG1, V domains shown)
VH: QVQLKESGPGLVAPSQSLSITCTVSGFSLTNYGIHWVRQPPGKGLEWLGVIWARGFTNYNSALMSRLIITKDNSQSQVFLKMNSLQPDDSATYFCARANDGVYYAMDYWGQGTSVTVSS
VL: QFVLTQSPAFLSASPGEKVTMTCSANSSVNYIHWYQQKSGTSPKKWIYDTSKLASGVPVRFSGSGSGTSYSLTISSMETEDAATYYCQQWTTNPLTFGAGTRVELK
notes: murine IgG1/κ secreted by hybridoma BHA2.1; labelled with Eu-N1-ITC where used as tracer; also called BHA2.1
[3]
  EC50, inhibiting binding of rat platelets to rat collagen Type I: 6.3 nM
  fold shift, rat compared to human platelets: ~5 fold
[4]
  EC50, inhibition of adhesion of CHO-α2 cells to collagen Type I: 1.2 nM
  EC50, inhibition of cell adhesion to collagen: 1.5 nM
[5]
  EC50 (nM), human platelet adhesion to human collagen Type I, ADP 0 µM: 1.7 nM
  EC50 (nM), human platelet adhesion to human collagen Type I, ADP 20 µM: 9.5 nM
  EC50 (nM), human platelet adhesion to human collagen Type II, ADP 0 µM: 1.9 nM
  EC50 (nM), human platelet adhesion to human collagen Type II, ADP 20 µM: 27 nM
  EC50 (nM), human platelet adhesion to human collagen Type III, ADP 0 µM: 1.6 nM
  EC50 (nM), human platelet adhesion to human collagen Type III, ADP 20 µM: 11 nM
  EC50 (nM), human platelet adhesion to human collagen Type IV, ADP 0 µM: 10 nM
  EC50 (nM), human platelet adhesion to human collagen Type IV, ADP 20 µM: > 1000 nM
  EC50 (nM), human platelet adhesion to human collagen Type VI, ADP 0 µM: 2.3 nM
  EC50 (nM), human platelet adhesion to human collagen Type VI, ADP 20 µM: 23 nM
GST
  binding result: no binding (tested: ~1 µM)
[6]
  Kd: 0.2 nM
[7]
  Ki: 0.11 nM
[8]
  Kd: 0.374 nM
